Assay results published in patent US8754033B2, “Peptides for inhibiting transglutaminase” (National Cancer Center, priority 2005, dated 2014).

Columns and labels:
TGase = target: T1, TGase (UniProt P08587); test: Competition assay: transglutaminase-mediated I-κBα cross-linking with or without synthetic peptides; assay type: biochemical, guinea pig; conditions: peptide 2 nmol, I-κBα 2 μg, 0.5 mU TGase, 10 mM CaCl2, 10 min at 37° C., SDS-PAGE, Coomassie band intensity
T1 sequence (P08587 1-690): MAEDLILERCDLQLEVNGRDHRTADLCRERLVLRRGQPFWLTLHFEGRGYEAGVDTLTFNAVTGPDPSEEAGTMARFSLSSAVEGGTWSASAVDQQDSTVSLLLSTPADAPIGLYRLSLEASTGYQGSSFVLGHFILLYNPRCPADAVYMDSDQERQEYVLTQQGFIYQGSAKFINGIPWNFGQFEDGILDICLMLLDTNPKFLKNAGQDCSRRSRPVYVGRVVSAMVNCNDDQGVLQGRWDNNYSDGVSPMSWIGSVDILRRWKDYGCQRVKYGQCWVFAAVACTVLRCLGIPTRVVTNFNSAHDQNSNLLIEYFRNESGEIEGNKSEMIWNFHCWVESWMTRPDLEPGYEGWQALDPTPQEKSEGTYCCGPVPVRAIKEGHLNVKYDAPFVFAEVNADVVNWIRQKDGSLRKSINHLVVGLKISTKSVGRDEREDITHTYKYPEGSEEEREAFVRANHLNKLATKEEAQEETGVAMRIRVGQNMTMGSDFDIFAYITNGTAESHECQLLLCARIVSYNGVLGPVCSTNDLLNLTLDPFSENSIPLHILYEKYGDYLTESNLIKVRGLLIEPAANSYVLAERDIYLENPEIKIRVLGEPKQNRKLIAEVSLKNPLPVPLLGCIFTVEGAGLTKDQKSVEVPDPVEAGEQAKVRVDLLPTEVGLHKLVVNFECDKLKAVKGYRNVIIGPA
Procedure: I-κBα (2 μg) was incubated with 0.5 mU TGase in a reaction buffer containing 50 mM Tris pH 7.5 and 10 mM CaCl2, with or without the peptides (2 nmol) of Table 1, so as to observe the cross-linking of I-κBα. The peptides of Table 1 were synthesized in Peptron Inc. After incubation for 10 min at 37° C., the reactants were separated by SDS-PAGE and visualized by Coomassie staining. Bands were measured for intensity using Adobe Photoshop software (FIGS. 7 and 8).

[1] = target: transglutaminase (guinea pig liver, Sigma) (Cavia cutleri, UniProt P08587); conditions: purified I-κBα with 1 mU transglutaminase, 50 mM Tris-HCl pH 7.5, 10 mM CaCl2, NuPAGE gel; in the presence of EDTA
Procedure: For in vitro polymerization, 10 pg of the purified I-κBα was incubated with 1 mU transglutaminase (guinea pig liver, Sigma) in a reaction mixture containing 50 mM Tris-HCl pH 7.5 and 10 mM CaCl2. Polymerization was analyzed using 4-12% NUPAGE gel electrophoresis (Invitrogen) (FIG. 3).

| Molecule | inhibition of transglutaminase-mediated I-κBα polymerization (TGase) | inhibition of transglutaminase (I-κBα polymerization) [1] |
| --- | --- | --- |
| ILKAT [I-κBα-derived synthetic peptide, residues 175-179] | inhibit transglutaminase-mediated I-κBα polymerization | – |
| RDGLKKERLL [I-κBα-derived synthetic peptide, residues 17-26] | inhibit transglutaminase-mediated I-κBα polymerization | – |
| TRIQQQLGQLTL [I-κBα-derived synthetic peptide, residues 263-274] | inhibit transglutaminase-mediated I-κBα polymerization | – |
| O=C(O)CN(CCN(CC(=O)O)CC(=O)O)CC(=O)O [EDTA] | – | inhibited |
| LGQLT [I-κBα-derived synthetic peptide, residues 269-273] | inhibit transglutaminase-mediated I-κBα polymerization | – |
| GVLTQSCTT [I-κBα-derived synthetic peptide, residues 161-169] | inhibit transglutaminase-mediated I-κBα polymerization | – |
| ENLQMLP [I-κBα-derived synthetic peptide, residues 275-281] | inhibit transglutaminase-mediated I-κBα polymerization | – |
| RIEEQLG [mutant of I-κBα-derived peptide] | inhibit transglutaminase-mediated I-κBα polymerization | – |
| HSILKATNY [I-κBα-derived synthetic peptide, residues 173-181] | inhibit transglutaminase-mediated I-κBα polymerization | – |
| VFGGQRLTL [I-κBα-derived synthetic peptide, residues 309-317] | inhibit transglutaminase-mediated I-κBα polymerization | – |
| RIQQQLG [I-κBα-derived synthetic peptide, residues 264-270] | inhibit transglutaminase-mediated I-κBα polymerization | – |
| RIEQELG [mutant of I-κBα-derived peptide] | inhibit transglutaminase-mediated I-κBα polymerization | – |
| IHEEKALTM [I-κBα-derived synthetic peptide, residues 83-91] | inhibit transglutaminase-mediated I-κBα polymerization | – |
| RIQEELG [mutant of I-κBα-derived peptide] | inhibit transglutaminase-mediated I-κBα polymerization | – |
